Earlier results as cited in US20060110594A1, “Polymer-coated substrates for binding biomolecules and methods of making and using thereof” (priority 2004, published 2006).

Details: isoelectric point, listed property

B1: Myoglobin: protein immobilized on EMA, 17.6 kDa (protein, UniProt P68082 2-154, looked up)
Myoglobin: GLSDGEWQQVLNVWGKVEADIAGHGQEVLIRLFTGHPETLEKFDKFKHLKTEAEMKASEDLKKHGTVVLTALGGILKKKGHHEAELKPLAQSHATKHKIPIKYLEFISDAIIHVLHSKHPGDFGADAQGAMTKALELFRNDIAAKYKELGFQG
modifications: immobilized on EMA
notes: protein immobilized on EMA, 17.6 kDa
For B1, which pI is on record?
The pI was 7.2.
